# Source: patent US20210317213A1 (AMBRX, published 2021)
# B1: Fab1-HK129-LL157-BiFolate (Fab, V domains shown)
# VH: EVQLVESGGGLVQPGGSLRLSCAASGFTFNTYAMNWVRQAPGKGLEWVARIRSKYNNYATYYADSVKDRFTISRDDSKNILYLQMNSLKTEDTAVYYCVRHGNFGNSYVSWFAYWGQGTLVTVSS
# VL: QAVVTQEPSLTVSPGGTVTLTCRSSTGAVTTSNYANWVQQKPGQAPRGLIGGTNKRAPGTPARFSGSLLGGKAALTLSGAQPEDEAEYYCALWYSNLWVFGGGTKLTVLG
# modifications: pAF at LL157 (Kabat) conjugated to folate (oxime); pAF at HK129 (Kabat) conjugated to folate (oxime)
# notes: From E. coli; carries two folates
# B2: Fab1-HK129-LL157-Folate (Fab, V domains shown)
# VH: EVQLVESGGGLVQPGGSLRLSCAASGFTFNTYAMNWVRQAPGKGLEWVARIRSKYNNYATYYADSVKDRFTISRDDSKNILYLQMNSLKTEDTAVYYCVRHGNFGNSYVSWFAYWGQGTLVTVSS
# VL: QAVVTQEPSLTVSPGGTVTLTCRSSTGAVTTSNYANWVQQKPGQAPRGLIGGTNKRAPGTPARFSGSLLGGKAALTLSGAQPEDEAEYYCALWYSNLWVFGGGTKLTVLG
# modifications: pAF at LL157 (Kabat); folate conjugated, and the label does not say at one site or both; pAF at HK129 (Kabat); folate conjugated, and the label does not say at one site or both
# B3: Fab1-HK129-LL157-5KPEG-Folate (Fab, V domains shown)
# VH: EVQLVESGGGLVQPGGSLRLSCAASGFTFNTYAMNWVRQAPGKGLEWVARIRSKYNNYATYYADSVKDRFTISRDDSKNILYLQMNSLKTEDTAVYYCVRHGNFGNSYVSWFAYWGQGTLVTVSS
# VL: QAVVTQEPSLTVSPGGTVTLTCRSSTGAVTTSNYANWVQQKPGQAPRGLIGGTNKRAPGTPARFSGSLLGGKAALTLSGAQPEDEAEYYCALWYSNLWVFGGGTKLTVLG
# modifications: pAF at LL157 (Kabat); 5K PEG-folate conjugated, and the label does not say at one site or both; pAF at HK129 (Kabat); 5K PEG-folate conjugated, and the label does not say at one site or both
# B4: Fab8 (vH2.2 / vL2.1), wild type from HEK293 (Fab, V domains shown)
# VH: EVQLVESGGGLVQPGGSLRLSCAASGFTFNTYAMNWVRQAPGKGLEWVGRIRSKYNNYATYYADSVKDRFTISRDDSKNILYLQMNSLKTEDTAVYYCVRHGNFGNSYVSWFAYWGQGTLVTVSS
# VL: QAVVTQEPSLTVSPGGTVTLTCRSSTGAVTTSNYANWFQQKPGQAPRGLIGGTNKRAPGVPARFSGSLLGGKAALTLSGAQPEDEAEYYCALWYSNLWVFGGGTKLTVLG
# notes: HEK293 supernatant
# B5: humanized anti-CD3 Fab vH1.0 + vL1.0 (Fab, V domains shown)
# VH: EVQLVESGGGLVQPGGSLRLSCAASGFTFNTYAMNWVRQAPGKGLEWVGRIRSKYNNYATYYADSVKDRFTISRDDSKNSLYLQMNSLKTEDTAVYYCVRHGNFGNSYVSWFAYWGQGTLVTVSS
# VL: QAVVTQEPSLTVSPGGTVTLTCRSSTGAVTTSNYANWFQQKPGQAPRTLIYGTNKRAPWTPARFSGSLLGGKAALTLSGAQPEDEAEYYCALWYSNLWVFGGGTKLTVLG
# notes: it has no Fab number; HEK293 supernatant; also called antibody with vL1.0 light chain and vH1.0
# B6: humanized anti-CD3 Fab vH1.1 + vL1.0 (Fab, V domains shown)
# VH: EVQLVESGGGLVQPGGSLRLSCAASGFTFNTYAMNWVRQAPGKGLEWVARIRSKYNNYATYYADSVKDRFTISRDDSKNSLYLQMNSLKTEDTAVYYCVRHGNFGNSYVSWFAYWGQGTLVTVSS
# VL: QAVVTQEPSLTVSPGGTVTLTCRSSTGAVTTSNYANWFQQKPGQAPRTLIYGTNKRAPWTPARFSGSLLGGKAALTLSGAQPEDEAEYYCALWYSNLWVFGGGTKLTVLG
# notes: it has no Fab number; HEK293 supernatant; also called antibody with vL1.0 light chain and vH1.1
# B7: humanized anti-CD3 Fab vH1.2 + vL1.0 (Fab, V domains shown)
# VH: EVQLVESGGGLVQPGGSLRLSCAASGFTFNTYAMNWVRQAPGKGLEWVARIRSKYNNYATYYADSVKDRFTISRDDSKNILYLQMNSLKTEDTAVYYCVRHGNFGNSYVSWFAYWGQGTLVTVSS
# VL: QAVVTQEPSLTVSPGGTVTLTCRSSTGAVTTSNYANWFQQKPGQAPRTLIYGTNKRAPWTPARFSGSLLGGKAALTLSGAQPEDEAEYYCALWYSNLWVFGGGTKLTVLG
# notes: it has no Fab number; HEK293 supernatant; also called antibody with vL1.0 light chain and vH1.2
# B8: Fab7 (vH2.3 / vL2.4), wild type from HEK293 (Fab, V domains shown)
# VH: EVQLVESGGGLVQPGGSLRLSCAASGFTFNTYAMNWVRQAPGKGLEWVARIRSKYNNYATYYADSVKDRFTISRDDSKNILYLQMNSLKTEDTAVYYCARHGNFGNSYVSWFAYWGQGTLVTVSS
# VL: QAVVTQEPSLTVSPGGTVTLTCRSSTGAVTTSNYANWVQQKPGQAPRGLIGGTNKRAPWVPARFSGSLLGGKAALTLSGAQPEDEAEYYCALWYSNLWVFGGGTKLTVLG
# notes: HEK293 supernatant
# B9: Fab9 (vH1.0 / vL2.1), wild type from HEK293 (Fab, V domains shown)
# VH: EVQLVESGGGLVQPGGSLRLSCAASGFTFNTYAMNWVRQAPGKGLEWVGRIRSKYNNYATYYADSVKDRFTISRDDSKNSLYLQMNSLKTEDTAVYYCVRHGNFGNSYVSWFAYWGQGTLVTVSS
# VL: QAVVTQEPSLTVSPGGTVTLTCRSSTGAVTTSNYANWFQQKPGQAPRGLIGGTNKRAPGVPARFSGSLLGGKAALTLSGAQPEDEAEYYCALWYSNLWVFGGGTKLTVLG
# notes: HEK293 supernatant
# B10: Fab11-HK129-Folate (Fab, V domains shown)
# VH: EVQLVESGGGLVQPGGSLRLSCAASGFTFSTYAMNWVRQAPGKGLEWVGRIRSKYNNYATYYADSVKDRFTISRDDSKNSLYLQMNSLKTEDTAVYYCVRHGNFGNSYVSWFAYWGQGTLVTVSS
# VL: QAVVTQEPSLTVSPGGTVTLTCRSSTGAVTTSNYANWFQQKPGQAPRTLIYGTNKRAPWTPARFSGSLLGGKAALTLSGAQPEDEAEYYCALWYSNLWVFGGGTKLTVLG
# modifications: pAF at HK129 (Kabat) conjugated to folate (oxime)
# B11: Fab19-HK129-Folate (Fab, V domains shown)
# VH: EVQLVESGGGLVQPGGSLRLSCAASGFTFNTYAMHWVRQAPGKGLEWVARIRSKYNNYATYYADSVKDRFTISRDDSKNILYLQMNSLKTEDTAVYYCVRHGNFGNSYVSWFAYWGQGTLVTVSS
# VL: QAVVTQEPSLTVSPGGTVTLTCRSSTGAVTTSNYANWVQQKPGQAPRGLIGGTNKRAPGTPARFSGSLLGGKAALTLSGAQPEDEAEYYCALWYSNLWVFGGGTKLTVLG
# modifications: pAF at HK129 (Kabat) conjugated to folate (oxime)
# B12: Fab20-HK129-Folate (Fab, V domains shown)
# VH: EVQLVESGGGLVQPGGSLRLSCAASGFTFNTYAMHWVRQAPGKGLEWVARIRSKYNNYATYYADSVKDRFTISRDDSKNILYLQMNSLKTEDTAVYYCVRHGNFGNSYVSWFAYWGQGTLVTVSS
# VL: QAVVTQEPSLTVSPGGTVTLTCRSSTGAVTTSNYANWVQQKPGQAPRGLIGGTNNRAPGTPARFSGSLLGGKAALTLSGAQPEDEAEYYCALWYSNLWVFGGGTKLTVLG
# modifications: pAF at HK129 (Kabat) conjugated to folate (oxime)
# B13: Fab9-HK129-LL157-BiFolate-Bi5KPEG (Fab, V domains shown)
# VH: EVQLVESGGGLVQPGGSLRLSCAASGFTFNTYAMNWVRQAPGKGLEWVGRIRSKYNNYATYYADSVKDRFTISRDDSKNSLYLQMNSLKTEDTAVYYCVRHGNFGNSYVSWFAYWGQGTLVTVSS
# VL: QAVVTQEPSLTVSPGGTVTLTCRSSTGAVTTSNYANWFQQKPGQAPRGLIGGTNKRAPGVPARFSGSLLGGKAALTLSGAQPEDEAEYYCALWYSNLWVFGGGTKLTVLG
# modifications: pAF at LL157 (Kabat) conjugated to a bifunctional linker carrying folate and 5K PEG (oxime); pAF at HK129 (Kabat) conjugated to a bifunctional linker carrying folate and 5K PEG (oxime)
# B14: Fab10-HK129-LL157-BiFolate-Bi5KPEG (Fab, V domains shown)
# VH: EVQLVESGGGLVQPGGSLRLSCAASGFTFSTYAMNWVRQAPGKGLEWVARIRSKYNNYATYYADSVKDRFTISRDDSKNILYLQMNSLKTEDTAVYYCVRHGNFGNSYVSWFAYWGQGTLVTVSS
# VL: QAVVTQEPSLTVSPGGTVTLTCRSSTGAVTTSNYANWFQQKPGQAPRGLIGGTNKRAPGVPARFSGSLLGGKAALTLSGAQPEDEAEYYCALWYSNLWVFGGGTKLTVLG
# modifications: pAF at LL157 (Kabat) conjugated to a bifunctional linker carrying folate and 5K PEG (oxime); pAF at HK129 (Kabat) conjugated to a bifunctional linker carrying folate and 5K PEG (oxime)
# What was measured:
# [1] = target: T1, human CD3 (human, UniProt P07766 23-207); test: cell binding, human PBMC
# T1 construct: whole, on cells; also called CD3 on human T-cells
# T1 sequence (P07766 23-207): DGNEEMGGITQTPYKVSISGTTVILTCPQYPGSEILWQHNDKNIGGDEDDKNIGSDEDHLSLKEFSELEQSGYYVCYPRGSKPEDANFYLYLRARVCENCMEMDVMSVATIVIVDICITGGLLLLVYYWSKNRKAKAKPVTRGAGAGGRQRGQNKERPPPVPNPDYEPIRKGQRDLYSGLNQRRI
# [2] = target: T1, human CD3; test: cell binding, human T-cells; parameters: Bmax: unit not given here
# [3] = target: T2, cyno CD3 (cyno (cynomolgus monkey), UniProt Q95LI5 22-198); test: cell binding, cynomolgus T-cells
# T2 construct: whole, on cells; also called CD3 on Cynomolgus T-cells
# T2 sequence (Q95LI5 22-198): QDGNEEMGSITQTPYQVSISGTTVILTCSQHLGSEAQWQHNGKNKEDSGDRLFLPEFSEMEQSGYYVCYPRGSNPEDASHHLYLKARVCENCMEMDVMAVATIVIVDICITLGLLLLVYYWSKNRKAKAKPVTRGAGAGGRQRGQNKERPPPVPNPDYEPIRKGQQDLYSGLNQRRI
# [4] = target: Folate receptor-alpha (FOLR1) (human) (UniProt P15328); test: summary table; FRα affinity over CD3 affinity
# Folate receptor-alpha (FOLR1) (human), sequence (P15328 25-234): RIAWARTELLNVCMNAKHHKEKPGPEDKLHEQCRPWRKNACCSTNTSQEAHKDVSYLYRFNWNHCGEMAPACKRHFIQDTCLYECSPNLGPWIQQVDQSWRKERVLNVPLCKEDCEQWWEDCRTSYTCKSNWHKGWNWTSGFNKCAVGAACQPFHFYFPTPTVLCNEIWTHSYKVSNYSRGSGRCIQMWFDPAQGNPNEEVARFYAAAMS
# [5] = target: Folate receptor-alpha (FOLR1) (human) (UniProt P15328); test: summary table; cell binding through the folate moiety
# [6] = target: T1, human CD3; test: cell binding, human CD3, 50 nM SFA present
# [7] = target: T1, human CD3; test: summary table; cell binding EC50, human PBMC
# [8] = target: Folate receptor-alpha (FOLR1) (human) (UniProt P15328); test: cell binding, FOLRα-expressing KB cells; through the folate moiety
# [9] = target: Folate receptor-alpha (FOLR1) (human) (UniProt P15328); test: cell binding, SKOV-3 cells with 50 nM SFA; through the folate moiety
# [10] = target: Folate receptor beta (human, UniProt P14207 17-230); test: cell-based or functional assay
# Folate receptor beta, sequence (P14207 17-230): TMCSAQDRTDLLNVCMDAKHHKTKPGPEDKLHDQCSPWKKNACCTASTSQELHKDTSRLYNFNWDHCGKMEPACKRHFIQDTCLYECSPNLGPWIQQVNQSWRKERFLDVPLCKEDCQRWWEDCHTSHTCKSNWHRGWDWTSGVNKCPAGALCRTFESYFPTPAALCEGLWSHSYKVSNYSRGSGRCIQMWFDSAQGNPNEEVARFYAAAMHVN
# [11] = target: T2, cyno CD3; test: flow cytometry (MFI), 11-point titration on cyno CD3 (activated cyno PBMC), HEK293 culture supernatant
# Protocol: (§1) Screening for human and cyno CD3 binding: HEK293 culture supernatants were directly used to test for binding to human CD3 in the screening phase. In Round 1 experiment, initially 35 clones were tested for binding to human CD3 at three different protein concentrations, and 13 were selected for detailed binding assays to both human and cyno CD3. An 11-point binding titration curve was generated to both human (FIG. 4A) and cyno CD3 (FIG. 4B) for each clone. […] Similarly, 43 clones were screened in Round 2 experiment. After two-stage screening as described above for Round 1, 11 low-affinity variants were obtained, of which 4 are represented as shown in FIGS. 5A-5B
# [12] = target: T1, human CD3; test: flow cytometry (MFI) on activated human PBMC, Fab in HEK293 culture medium, concentration not shown
# Protocol: Testing for CD3 binding with activated human and cyno PBMC: To distinguish between the humanized anti-CD3 antibodies generated, binding to human CD3 was tested using activated human PBMCs (n=2). The activation of PBMCs and subsequent fluorescence-based CD3 binding assays were followed as described previously (see for example, Angew Chem Int Ed Engl, 52(46):12101-12104, 2013). […] The binding of the remaining 6 humanized antibodies to both human and cyno CD3 using activated human and cyno PBMCs, respectively, was titrated. […] The six (6) humanized anti-CD3 antibodies were obtained as follows: Fab1, Fab2 and Fab3 wildtype were generated by combination of LC ((vL1.2+CL); (SEQ.ID. NO:7)) and HC ((vH1.2+CH1); (SEQ.ID. NO:1)), ((vH1.1+CH1); (SEQ.ID. NO:2)) and ((vH1.0+CH1); (SEQ.ID. NO:3)) respectively. Fab4, Fab 5 and Fab6 wildtype were generated by combination of LC ((vL1.1+CL); (SEQ.ID. NO:8)) and HC ((vH1.2+CH1); (SEQ.ID. NO:1)), ((vH1.1+CH1); (SEQ.ID. NO:2)) and ((vH1.0+CH1); (SEQ.ID. NO:3)) respectively.
# [13] = target: T1, human CD3; test: flow cytometry (MFI), 11-point titration on human CD3 (activated human PBMC), HEK293 culture supernatant
# Protocol: as §1
# [14] = target: T1, human CD3; test: cell binding, activated human PBMC
# [15] = target: T1, human CD3; test: cell binding, human PBMC, 20 nM SFA present
binder,measurement,setting,value
B1,EC50,[1],1.93 nM
same,Fold increase binding (vs Fab1-HK129-Folate),[1],1.3 fold
same,Bmax,[2],24600
same,Kd,[2],0.669 nM
same,Bmax,[3],19600
same,Kd,[3],1 nM
same,Affinity ratio (FRα:CD3),[4],10
same,FRα binding affinity,[5],19.8 nM
same,EC50,[6],2.37 nM
same,CD3 binding affinity,[7],1.93 nM
same,Bmax,[8],74400
same,Kd,[8],0.85 nM
same,EC50,[9],19.8 nM
same,Fold increase binding (vs Fab1-HK129-Folate),[9],2.2 fold
B2,"IC50, killing of human M2 macrophages with human T-cells, 50 nM folic acid",[10],0.0012 nM
B3,"IC50, killing of human M2 macrophages with human T-cells, 50 nM folic acid",[10],0.112 nM
B4,EC50 (read off the curve),[11],~6 nM
B5,binding result,[12],no binding
B6,binding result,[12],no binding
B7,binding result,[12],no binding
B8,EC50 (read off the curve),[11],~2 nM
same,EC50 (read off the curve),[13],~2 nM
B9,EC50 (read off the curve),[13],~10 nM
B10,binding result,[14],no binding (tested: 1000 nM)
B11,binding result,[14],no binding (tested: 1000 nM)
B12,binding result,[14],no binding (tested: 1000 nM)
B13,EC50,[15],340 nM
B14,EC50,[15],6310 nM
